# Measurements: publication PMC8570342, “Identification of an Isoflavonoid Transporter Required for the Nodule Establishment of the Rhizobium-Fabaceae Symbiotic Interaction” (Frontiers in Plant Science, 2021)
# B1: LaMATE2 (Lupinus albus) (protein)
# chain: MEESLIPKQVEQKTERYNEEKQKHKVTWNSFSEEMKRICVVAGPMVIVISSQYLLQVVSTMMVGHLGELYLSSAALAISLSSVTGFSLIMGMASGLETICGQAFGGKQYKRIGTQTYTAILSLTLVSFVLSLLWINMERILVFIGQDPLIAHESGKFIIWLIPALFAYAIMQPLVRYFQMQSLLFPMLISSLVALCIHIPLCWALVYKTRLHNVGGALALGISNWSNVIFLALYMRYSSACAKTRAPISMELFHGIWEFFRFAVPSALMICLEWWSFELLVLLSGLLPNPQLETSVLSVCLNTISTLYTIPFGIGAAASTRVSNELGAGNPHTARIAVLAAMSLAVLETCVVTGTLFACRHIFGYIFSNEKEVVDYVTLMAPLVCISVILDSLQGVLTGIARGCGWQHLGVYVNLGAFYLLGIPAAATLAFWFKLRGKGLWIGIQVGSFVQTLLLSIITSGINWEQQANKAKYRLLEDESSAENSLA
# notes: full ORF in pNEV, no tag stated; expressed in Saccharomyces cerevisiae YPH499, microsomal membrane vesicles; 12 predicted transmembrane helices
# Substrate: O=c1c(-c2ccc(O)cc2)coc2cc(O)cc(O)c12
# Assay: 3H-genistein uptake into yeast microsomal vesicles, rapid filtration, Hanes-Woolf plot
# Format: biochemical, Lupinus albus
# Settings: labelled compound, 5 mM ATP, 10 mM MgCl2, 0.1 M KCl, pH 7.4, 30 s, empty-vector uptake subtracted, proton-driven
# From the text: 3H-genistein uptake into yeast microsomal vesicles, rapid filtration, Hanes-Woolf plot on LaMATE2 | LaMATE2 mediates an efficient transport of genistein which was characterized by a saturable kinetic
protein,measurement,value
B1,Km,16.2 µM
